Results reported in US20070148164A1.
pKd: −log10 of the molar value.

Key:
[1] = target: soluble monomeric hFcRn (human) (UniProt P55899); assay: Biacore, IgGs immobilized on the same chip, soluble monomeric hFcRn; reference human IgG1
hIgG (human IgG) = assay: Biacore, hIgG immobilized

Sequence of soluble monomeric hFcRn (human) (P55899 24-297, chain 1 of 2): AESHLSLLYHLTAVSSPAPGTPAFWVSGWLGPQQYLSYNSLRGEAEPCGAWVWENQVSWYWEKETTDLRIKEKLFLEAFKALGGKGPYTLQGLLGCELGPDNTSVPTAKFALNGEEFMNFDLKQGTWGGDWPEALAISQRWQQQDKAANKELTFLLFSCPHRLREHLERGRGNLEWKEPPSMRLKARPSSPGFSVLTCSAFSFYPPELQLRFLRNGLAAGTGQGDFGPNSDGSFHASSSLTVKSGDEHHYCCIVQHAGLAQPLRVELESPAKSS
Sequence of soluble monomeric hFcRn (human) (P61769 21-119, chain 2 of 2, further chain): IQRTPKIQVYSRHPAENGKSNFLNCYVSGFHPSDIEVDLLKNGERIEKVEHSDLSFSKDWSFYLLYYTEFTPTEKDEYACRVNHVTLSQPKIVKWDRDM

Substance: rabbit IgG1 (antibody)
- fold tighter Kd than hIgG [1]: 2 fold

Substance: soluble monomeric hFcRn (from UniProt P55899 24-297; P61769 21-119) (receptor)
- pKd (hIgG (human IgG)): 5.70
